# Test results taken from PMC2628355, “The inhibition of assembly of HIV-1 virus-like particles by 3-O-(3',3'-dimethylsuccinyl) betulinic acid (DSB) is counteracted by Vif and requires its Zinc-binding domain” (Virology Journal, 2008).
# B1: oligohistidine-tagged HIV-1 Vpr protein (natural protein, UniProt P69726 1-96, looked up)
# chain: MEQAPEDQGPQREPHNEWTLELLEELKNEAVRHFPRIWLHGLGQHIYETYGDTWAGVEAIIRILQQLLFIHFRIGCRHSRIGVTRQRRARNGASRS
# notes: HIV-1 Vpr; also called His-tagged Vpr; source: Sf9 cells infected with recombinant baculovirus AcMNPV-Vpr (obtained from Eric Cohen); in cells and in extracellular VLP
# Key:
# [1] = target: VifsubCΔ170, triple mutant of HIV-1 Vif (subA+subB and deletion of the 23 C-terminal residues) (HIV-1); assay: SDS-PAGE and immunoblotting (dimer band); whole cell lysates or VLP of baculovirus-infected Sf9 cells on SDS-denaturing 12% polyacrylamide gels, blotted with anti-His or anti-Vif antibody; a band at twice the monomer's mass
# [2] = target: the molecule itself; assay: as above
Molecule,stoichiometry N [1],stoichiometry N [2]
"VifsubCΔ170, triple mutant of HIV-1 Vif (subA+subB and deletion of the 23 C-terminal residues) (domain or fragment)",2,–
B1,–,2
